B1: P056028-F-10 (protein)
chain: MGPTPTATAAGAAVAAASAAEQAAFRLVGHRNFVRFNPRSDRFQTLAFHHVELWCADAASAAGRFSFALGVPLAARSDLSTGNSAHASLLLRSGSLSLLFTAPYAHGADAATAALPSFSAAAARRFAADHGLAVRAVALRVADAEDAFRASVAAGARPAFGPVDLGRGFRLAEVELYGDVVLRYVSYPDGGAGEPFLPGFEGVASPGAADYGLNRFDHIVGNVPELAPAAAYMAGFTGFHEFAEFTTEDVGTTESGLNSMALANNSENVLLPLNEPVHGTKRRSQIQTFLDHHGGPGVQHIALASDDVLRTLREMRARSAMGGFEFLPPPLSDYYDGVRKCAGDVLTEAQINECQELGVMVDRDDEGVLLQIFTKPVGDRPTFFLEIIQRIGCMEKDEKGQEYQKGGCGGFGKGNFGQLFKSIEDYEKSLEAKQAAAAATAQGS
modifications: Zea mays variant form created by artificial means.
B2: P056028-F-11 (protein)
chain: B1 chain with N214S, N265D, K340R
modifications: Zea mays variant form created by artificial means.
B3: P056028-F-08 (protein)
chain: B1 chain with P158K, G191A, Y211L, N214S
modifications: Zea mays variant form created by artificial means.
B4: P056028-F-03 (protein)
chain: B1 chain with N214S, K340R, L385I, M394T, G417S
modifications: Zea mays variant form created by artificial means.
B5: P056028-F-07 (protein)
chain: B1 chain with N214S, Q434H
modifications: Zea mays variant form created by artificial means.
B6: P056028-F-04 (protein)
chain: B1 chain with G191A, N214S, K340R, I387L
modifications: Zea mays variant form created by artificial means.
B7: P056028-F-06 (protein)
chain: B1 chain with P206S, Y211L, E356K, I387L
modifications: Zea mays variant form created by artificial means.
B8: P056028-F-09 (protein)
chain: B1 chain with G191A, P206Q, N214S, K340R, I387L
modifications: Zea mays variant form created by artificial means.
B9: Mz wt (protein)
chain: MGPTPTAAAAGAAVAAASAAEQAAFRLVGHRNFVRFNPRSDRFHTLAFHHVELWCADAASAAGRFSFGLGAPLAARSDLSTGNSAHASLLLRSGSLSFLFTAPYAHGADAATAALPSFSAAAARRFAADHGLAVRAVALRVADAEDAFRASVAAGARPAFGPVDLGRGFRLAEVELYGDVVLRYVSYPDGAAGEPFLPGFEGVASPGAADYGLSRFDHIVGNVPELAPAAAYFAGFTGFHEFAEFTTEDVGTAESGLNSMVLANNSENVLLPLNEPVHGTKRRSQIQTFLDHHGGPGVQHMALASDDVLRTLREMQARSAMGGFEFMAPPTSDYYDGVRRRAGDVLTEAQIKECQELGVLVDRDDQGVLLQIFTKPVGDRPTLFLEIIQRIGCMEKDEKGQEYQKGGCGGFGKGNFSQLFKSIEDYEKSLEAKQAAAAAAAQGS
modifications: Zea mays

Numbering of substitutions follows the chain as printed.

Results on nine molecules are retold here after patent US11015206B2, “Compositions and methods comprising sequences having hydroxyphenylpyruvate dioxygenase (HPPD) activity” (PIONEER HI-BRED INTERNATIONAL, INC., priority 2014, dated 2021).

Broadly, the kcat is the number of substrate molecules converted per active site and unit of time at saturation.

For one data set, the system named is 4-hydroxyphenylpyruvate dioxygenase (HPPD). In words: OFF rate ratio: release of inhibitor from pre-formed enzyme-inhibitor complex. To be noted: Table 7; tembotrione; combinatorial variants. Type of data set: biochemical, Z. mays. The gist of the method: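 HPPD (7.2 μM) pre-incubated 1 h at RT with inhibitor (8 μM), then diluted into 25 mM Hepes pH 7, 2 mM ascorbate, 10 μM FeSO4, 100 μM HPP, 50 nM HGD; A320 followed 12 min. Ratio = steady-state rate with inhibitor over initial rate of inhibitor-free enzyme.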
Take B1: the OFF rate ratio was 0.291.
Still for that read-out and setting: under B2 stands 0.322; under B3, 0.377.
Same read-out and setting: the result for B4 reads 0.491; that for B5, 0.322.
Still for that read-out and setting: under B6 stands 0.245; under B7, 0.305.
Regarding B8, the OFF rate ratio is on record as 0.360.
Same read-out and setting: the result for B9 reads 0.033.

The test system is the same in another data set. In words: Estimate of kcat from initial rate at saturating hydroxyphenylpyruvate without inhibitor (ON rate ratio assay). To be noted: Megatable 3; shuffled variants. The class given is biochemical, Z. mays. The gist of the method:
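Reactions used 60 or 120 nM HPPD and saturating 100 μM hydroxyphenylpyruvate without inhibitor. kcat was estimated from the initial rate at the known enzyme concentration.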
As for B1, the kcat is 0.228 s⁻¹.
For B2, the kcat was 0.368 s⁻¹.
On the same count and under the same terms, under B3 stands 0.202 s⁻¹.
Same read-out and setting: the result for B4 reads 0.217 s⁻¹; that for B5, 0.357 s⁻¹.
Same read-out and setting: the result for B6 reads 0.278 s⁻¹; that for B7, 0.242 s⁻¹.
As for B8, the kcat is 0.285 s⁻¹.
Still for that read-out and setting: the result for B9 reads 1.62 s⁻¹.

Still in this data set, the particulars now being: Table 7; combinatorial variants.
Consider B1, for which the kcat was 0.228 s⁻¹.
The same measure, in the same setting: under B2 stands 0.368 s⁻¹; under B3, 0.202 s⁻¹.
In the case of B4, the kcat is 0.217 s⁻¹.
Same read-out and setting: under B5 stands 0.357 s⁻¹; under B6, 0.278 s⁻¹; under B7, 0.242 s⁻¹.
On the same count and under the same terms, under B8 stands 0.285 s⁻¹; under B9, 1.62 s⁻¹.

The next data set has the same test system. In words: ON rate ratio: HPPD reaction rate with vs without inhibitor in the 70 to 90 second interval. Type of data set: biochemical, Z. mays. To be noted: Table 7; tembotrione; combinatorial variants. In outline: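 Time courses of HPPD reactions, 60 or 120 nM enzyme with 100 μM HPP substrate, run with and without 4 μM inhibitor (e.g. mesotrione, tembotrione). Value is the rate with inhibitor over rate without, taken over 70–90 s; higher ratio reflects slower kON.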
In the case of B1, the ON rate ratio stood at 0.726.
The same measure, in the same setting: under B2 stands 0.706; under B3, 0.705.
B4: the ON rate ratio came out at 0.738.
Take B5: the ON rate ratio was determined as 0.735.
On the same count and under the same terms, the result for B6 reads 0.660; that for B7, 0.739.
With B8, the ON rate ratio worked out at 0.700.
The same measure, in the same setting: under B9 stands 0.213.

For a further data set the test system is unchanged. In words: Insensitivity parameter (ON × OFF) and trait fitness (ON × OFF × kcat/KM or × kcat). The class given is biochemical, Z. mays. Details: key to ON × OFF / Insensitivity, mesotrione, ON × OFF / Insensitivity, tembotrione, ON × OFF / Insensitivity, topramezone, ON × OFF / Insensitivity, sulcotrione, ON × OFF / Insensitivity, isoxaflutole (DKN), ON × OFF: insensitivity = ON rate ratio × OFF rate ratio (surrogate for KD). Conditions: Megatable 3; shuffled variants. The gist of the method:
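Calculated, not measured directly: ON rate ratio × OFF rate ratio gives an insensitivity parameter serving as a KD surrogate.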
Consider B1, for which the “ON × OFF” value is on record as 0.211 and the “ON × OFF × kcat” value was determined as 2.89.
The matching figures for B2: 0.228 and 5.04.
The matching figures for B3: 0.266 and 3.23.
The matching figures for B4: 0.363 and 4.73.
Consider B5, for which the “ON × OFF” value was found to be 0.236 and the “ON × OFF × kcat” value is given as 5.04.
For the molecule B6, the “ON × OFF” value is given as 0.161 and the “ON × OFF × kcat” value came to 2.70.
Regarding B7, the “ON × OFF” value stood at 0.225 and the “ON × OFF × kcat” value was 3.25.
On the same counts, the results for B8 are 0.252 and 4.30.
In the case of B9, the “ON × OFF” value is 0.007 and the “ON × OFF × kcat” value came to 0.68.

Still in this data set, the particulars now being: Table 7; tembotrione; combinatorial variants.
Regarding B1, the “ON × OFF” value is recorded as 0.211 and the “ON × OFF × kcat” value is on record as 2.89.
Regarding B2, the “ON × OFF” value is 0.228 and the “ON × OFF × kcat” value was 5.04.
The matching figures for B3: 0.266 and 3.23.
Turning to B4, the “ON × OFF” value turned out to be 0.363 and the “ON × OFF × kcat” value came out at 4.73.
B5: the “ON × OFF” value is 0.236 and the “ON × OFF × kcat” value was determined as 5.04.
The matching figures for B6: 0.161 and 2.70.
On the same counts, the results for B7 are 0.225 and 3.25.
The matching figures for B8: 0.252 and 4.30.
With B9, the “ON × OFF” value stood at 0.007 and the “ON × OFF × kcat” value stood at 0.68.
